{"source": "paper PMC3468502", "molecular_target": "BCL11A (Homo sapiens) (UniProt Q9H165)", "sequence (Q9H165 whole entry)": "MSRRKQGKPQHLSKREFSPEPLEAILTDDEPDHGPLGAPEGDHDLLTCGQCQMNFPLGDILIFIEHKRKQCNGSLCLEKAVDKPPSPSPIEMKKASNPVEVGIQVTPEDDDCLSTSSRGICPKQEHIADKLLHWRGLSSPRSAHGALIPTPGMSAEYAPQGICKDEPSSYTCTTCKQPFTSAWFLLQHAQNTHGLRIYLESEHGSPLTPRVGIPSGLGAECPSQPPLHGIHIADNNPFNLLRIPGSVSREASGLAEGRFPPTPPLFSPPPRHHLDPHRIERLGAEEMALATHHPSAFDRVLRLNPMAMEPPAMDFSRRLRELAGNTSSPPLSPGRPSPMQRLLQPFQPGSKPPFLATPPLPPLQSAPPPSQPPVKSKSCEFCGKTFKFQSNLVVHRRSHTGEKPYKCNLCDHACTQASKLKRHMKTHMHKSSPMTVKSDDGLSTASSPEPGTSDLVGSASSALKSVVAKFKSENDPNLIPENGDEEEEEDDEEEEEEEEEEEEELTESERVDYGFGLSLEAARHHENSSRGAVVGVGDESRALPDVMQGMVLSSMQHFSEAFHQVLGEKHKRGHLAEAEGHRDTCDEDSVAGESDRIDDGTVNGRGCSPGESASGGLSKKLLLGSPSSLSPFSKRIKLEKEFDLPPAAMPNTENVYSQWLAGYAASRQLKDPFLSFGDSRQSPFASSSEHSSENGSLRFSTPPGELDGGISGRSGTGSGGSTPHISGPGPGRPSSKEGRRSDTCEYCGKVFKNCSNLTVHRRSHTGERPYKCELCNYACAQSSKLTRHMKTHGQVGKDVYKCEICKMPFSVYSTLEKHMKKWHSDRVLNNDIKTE", "assay": "EMSA supershift", "conditions": "with NF-Y, EMSA with nuclear extracts, 100x molar excess competitors, buffer and temperature not given (refs 25-27)", "data": [{"sequence": "GCCTTGCCTTGACCAATAGCCTTGACAAGGCAAACTTGACCAATAGTCTTAGAGTATCCAGTGAGGCCAGGGGCCGGCGGCTGGCTAGGGATGA (double strand) [Wt proximal gamma-globin promoter probe (94 bases)]", "values": [{"measurement": "binding signal (% of NF-Y band supershifted)", "setting": "D14 extract", "result": 40}, {"measurement": "binding signal (% of NF-Y band supershifted)", "setting": "K562 extract", "result": 30}, {"measurement": "binding signal (% of NF-Y band supershifted)", "setting": "fetal liver extract", "result": 30}]}]}
